Experiments:
[1] = target: His-tagged PthXo1 (Xanthomonas oryzae pv. oryzae, UniProt B2SU53 1-1373); assay: MST; […]; 50 mM Tris-HCl pH 7.8, 150 mM NaCl, 10 mM MgCl2, 0.05% Tween-20; 25°C; […]; settings: both partners purified
[2] = target: His-tagged AvrXa27 (Xanthomonas oryzae pv. oryzae, UniProt A0A0K0GNW2 1-1136); assay: as above; settings: both partners purified

B1: His-tagged Xa5 (OsTFIIAγ5), labelled with NT-647 (natural protein, rice (Oryza sativa), UniProt A2XZI2 1-106, looked up)
chain: MATFELYRRSTIGMCLTETLDEMVSSGTLSPELAIQVLVQFDKSMTEALENQVKSKVSIKGHLHTYRFCDNVWTFILTEASFKNEETTEQVGKVKIVACDSKLLSQ
modifications: amine-reactive red fluorescent dye NT-647
- Kd [1]: < 1000 nM
- Kd [2]: < 1000 nM

— article PMC6638009 (Molecular Plant Pathology, 2018)
